The results in this text go back to patent US20240377414A1 (BELLYLABS, published 2024).

Experiment [1] deals with T1, canine relaxin (mature relaxin in pregnant dog serum) (dog, UniProt Q9TRM8 154-177; Q9TRM8 26-60).
T1 construct: mature; Endogenous relaxin in serum, plasma or whole blood of pregnant dogs; also called dog relaxin
Briefly: hybridoma screen for activity against relaxin-positive pregnant dog serum. The method, then: Monoclonal IgG antibodies were prepared by immunizing mice with preprorelaxin (Bioraytec Ltd., Zhuhai, China) using standard laboratory methods known in the art. Anti-preprorelaxin antibody expressing hybridomas were derived by fusing myeloma cells with splenocytes from the immunized mice. The antibodies produced by hybridoma clonal cell lines were initially screened for activity against relaxin-positive pregnant dog serum. Relaxin positivity of the serum was confirmed using the FASTest RELAXIN in vitro test (Diagnostik Megacor, Hörbranz, Austria). The serum contains mature relaxin as preprorelaxin is not present in serum, and so the selected antibodies are reactive against relaxin and not only preprorelaxin.

The target of experiment [2] is T1, canine relaxin (mature relaxin in …). Briefly: hybridoma screen against relaxin-positive dog serum.

T1 sequence (Q9TRM8 154-177 limits assumed, chain 1 of 2): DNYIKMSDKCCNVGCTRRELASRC
T1 sequence (Q9TRM8 26-60 limits assumed, chain 2 of 2): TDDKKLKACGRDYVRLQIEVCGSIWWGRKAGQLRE

B1: monoclonal antibody 2H7 (antibody, V domains shown)
VH: DVQLQESGPDLVKPSQSLSLTCTVTGYSITSGYSWHWIRQFPGNKLEWMGYIHYSGRTNYNPSLKSRISITRDTSKNQFFLQLNSVTTEDTATYYCARSMDYWGQGTSVSVSS
VL: DIKMTQSPSSMYASLGERVTITCKASQDIKTYLNWYQQKPWKSPKTLIYYATSLADGVPSRFSGSGSGQDFSLTISSLESDDTATYFCLQHGESPPTFGGGTKLEIK
notes: Mouse monoclonal IgG from hybridoma; Mostly used as capture antibody on the test line; gold-labelled as detection antibody in the pair 2F10-2H7; also called capture antibody; hybridoma CCTCC C2021209
B1: in experiment [1], the binding result was “binds”.

B2: monoclonal antibody 9B8 (antibody, V domains shown)
VH: EVKLEESGGGLVQPGGSMKLSCAASGFTFSDAWMDWVRRSPEKGLEWIAEIRSKAKNHITYYAESVKGRFTISRDDSKSSVYLQMNSLRTEDSGIYYCTGGFAYWGQGTLVTVSA
VL: DAVMTQNPLSLPVSLGDQASISCRSSQSLEKSNGNTYLNWYLQKPGQSPQLLIYRVSNRFSGVPDRISGGGSGTDFTLKISRVEAEDLGVYFCVQVSHVPFTFGSGTKLEIK
notes: also called second detection antibody; hybridoma CCTCC C2021211
B2: the binding result in experiment [2] is “binds”.

B3: monoclonal antibody 2A4 (antibody, V domains shown)
VH: AVNLEESGGGLVLPGGSMKLSCTASGFTFSDAWMDWVRRSPEKGLEWLAEIRDETNNHITYYAESVKVRFIISRDDSKSSVYLQMNNLRPEDTGIYYCAAGFAYWGQGTLVTVSA
VL: DAVMTQTPLSLSVSLGDQASISCRSSQSLEKSNGKTYLNWYLQKPGQSPQLLIYRVSNRFSGVLDRFSGSGSGTDFTLKISRVEAEDLGLYFCLQVSHVPFTFGSGTKLEIK
notes: also called first detection antibody; hybridoma CCTCC C2021210
Consider B3, for which the binding result in experiment [2] is listed as “binds”.
